Data from article PMC4498406.

Target: [Lys]plasminogen (human)
Experiment: kinetics of conformational plasminogen activation

Substance: streptokinase ALAB49 SK2b variant with Tyr4 substituted by Pro (natural protein)
- Kd: 0.6 µM
